This is an account of results in article PMC11963761, “Structural basis for control of integrative and conjugative element excision and transfer by the oligomeric winged helix–turn–helix protein RdfS”.

In data set [1] the target is RdfS, recombination directionality factor of ICEMlSym^R7A (6H tag removed) (Mesorhizobium japonicum R7A). Kind of data set: SEC; analytical gel filtration, Superdex 75 10/300 GL, 50 mM Tris–HCl, 300 mM NaCl, 5% (v/v) glycerol, pH 7.4, 4°C, 0.5 ml/min; protein at ∼7 mg/ml, 50 μl injected; no DNA. Background: SEC sorts molecules by how far they enter the pores of the column.

Data set [2] addresses 6H-RdfS, N-terminal hexahistidine fusion of RdfS (Mesorhizobium japonicum R7A). Kind of data set: SEC-SAXS; SEC-SY-SAXS (Australian Synchrotron) of 6H-RdfS bound to the 40-bp dsDNA attP_8; mass of the nucleoprotein complex from scattering.
Data set [3] concerns the target RdfS_(13–89), α1-truncated RdfS (Mesorhizobium japonicum R7A). Kind of data set: SEC; analytical gel filtration, Superdex 75 10/300 GL, 50 mM Tris–HCl, 300 mM NaCl, 5% (v/v) glycerol, pH 7.4, 4°C, 0.5 ml/min; protein at ∼7 mg/ml, 50 μl injected; no DNA.
Data set [4] deals with RdfS13-89 (Mesorhizobium japonicum R7A (ICEMlSymR7A)). Kind of data set: EMSA. As to conditions: EMSA: DNA master mix 50 mM Tris-HCl, 150 mM NaCl, 5% glycerol, pH 7.4, 1 unit poly[d(I-C)] (10 of 20 uL), 10 nM DNA; SPR: ReDCaT on Biacore T200, 1 uM protein …. In general terms: In EMSA bound probe runs differently from free probe, usually more slowly.
The target of data set [5] is T1, RdfS (Mesorhizobium japonicum R7A (ICEMlSymR7A)) (UniProt Q7AL96).
T1 sequence: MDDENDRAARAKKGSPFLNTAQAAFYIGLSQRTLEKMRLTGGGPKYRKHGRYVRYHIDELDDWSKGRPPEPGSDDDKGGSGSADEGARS
Kind of data set: EMSA. As to conditions: EMSA: DNA master mix 50 mM Tris-HCl, 150 mM NaCl, 5% glycerol, pH 7.4, 1 unit poly[d(I-C)] (10 of 20 uL), 10 nM DNA; SPR: ReDCaT on Biacore T200, 1 uM protein ….

Another data set concerns the target T2, 6H-RdfS (Mesorhizobium japonicum R7A …, UniProt Q7AL96 1-89).
T2 sequence: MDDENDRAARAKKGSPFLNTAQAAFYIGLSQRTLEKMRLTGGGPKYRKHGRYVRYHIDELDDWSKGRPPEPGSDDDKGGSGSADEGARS
Description: SEC-SAXS; 4:1 protein:dsDNA; EMSA: DNA master mix 50 mM Tris-HCl, 150 mM NaCl, 5% glycerol, pH 7.4, 1 unit poly[d(I-C)] (10 of 20 uL), 10 nM DNA; SPR: ReDCaT on Biacore T200, 1 uM protein. As to conditions: protein: recombinant; tags: N-terminal 6xHis; chain copies: 4; blunt.

Regarding “RdfS, recombination directionality factor of ICEMlSym^R7A (6H tag removed) (natural protein)”, the stoichiometry N in data set [1] was 4.

Regarding “6H-RdfS, N-terminal hexahistidine fusion of RdfS (natural protein)”, in data set [2], the stoichiometry N is 4.

On to “RdfS_(13–89), α1-truncated RdfS (domain or fragment)”, for which, in data set [3], the stoichiometry N worked out at 2.

As for attP 283 bp, the binding signal (% of RdfS affinity) in data set [4] stood at 50.

In the case of “GCCGGCTCAAGCCCTCGCGCCGCAACTCGGCGCGGGGGTTCCCGCCGACGCTCGCCCGAAGGGGCGGCGAAAACTCCCACCCGACTCTTCGCCCGTCCCCACGACGACCTCGTTCGCCGATCCTCGCGGTTGCTTGTCCGAAGCGAAACGAGGACC (double strand) [PrdfS 162 bp]”, the binding result in data set [5] was “binds”.

B1: attP_8 40-mer (dsDNA)
DNA 1: GAATTTCGGCGCAGTTGGTCCAACGAGGCGGGGGGCTGGT
DNA 2: ACCAGCCCCCCGCCTCGTTGGACCAACTGCGCCGAAATTC
Consider B1, for which the binding result with 6H-RdfS is given as “binds”.

Usually stoichiometry N stands for a count of units in the complex or per binding partner.
